From PMC9917171, “Yet Another Similarity between Mitochondrial and Bacterial Ribosomal Small Subunit Biogenesis Obtained by Structural Characterization of RbfA from S. aureus” (International Journal of Molecular Sciences, 2023) come the findings set out here.

This experiment has as its target ribosomal binding factor A (RbfA) from Staphylococcus aureus, histidine tag at the N-terminus (S. aureus, UniProt A5ISF4 1-116). Description: cryo-EM structure; 30S-RbfA complex reconstituted by mixing mature S. aureus 30S subunits and recombinant RbfA (1:30); overall resolution 2.9 Å. To be noted: both partners purified.

B1: ribosomal protein S7 of the S. aureus 30S subunit (natural protein)
chain: MPRKGSVPKRDVLPDPIHNSKLVTKLINKIMLDGKRGTAQRILYSAFDLVEQRSGRDALEVFEEAINNIMPVLEVKARRVGGSNYQVPVEVRPERRTTLGLRWLVNYARLRGEKTMEDRLANEILDAANNTGGAVKKREDTHKMAEANKAFAHYRW
notes: 30S ribosomal protein S7, S. aureus RN6390; model built from the published S. aureus 30S (PDB 5ND8); Stood in the assay as part of the whole 30S subunit (16S rRNA and the other small subunit proteins; S21 and S1 not seen in the density); also called S7 head protein; source: endogenous, within 30S subunits obtained by dissociation of 70S ribosomes purified from S. aureus RN6390
As for B1, the binding result was “binds”.
